{"source": "patent US20220064279A1", "about": "(AstraZeneca / MedImmune, published 2022)", "binders": {"B1": {"name": "h5D8 (humanized 5D8, H2L2) (antibody, V domains shown)", "VH": "QVQLQESGGGLVKPGGSLRLSCAASGFTFSHAWMHWVRQAPGKGLEWVGQIKAKSDDYATYYAESVKGRFTISRDDSKNTLYLQMNSLKTEDTAVYYCTCWEWDLDFWGQGTMVTVSS", "VL": "DIVMTQTPLSSPVTLGQPASISCRSSQSLLDSDGHTYLNWLQQRPGQPPRLLIYSVSNLESGVPDRFSGSGAGTDFTLKISRVEAEDVGVYYCMQATHAPPYTFGQGTKLEIK"}}, "target": "endogenous LIF of U-251 glioma cells (human, UniProt P15018 23-202)", "sequence (P15018 23-202 limits assumed)": "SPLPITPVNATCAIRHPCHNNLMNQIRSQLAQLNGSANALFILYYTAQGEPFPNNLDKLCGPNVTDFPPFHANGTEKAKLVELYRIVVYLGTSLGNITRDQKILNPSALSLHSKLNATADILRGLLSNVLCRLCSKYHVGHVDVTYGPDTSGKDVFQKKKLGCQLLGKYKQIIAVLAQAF", "assay": "cell-based or functional assay", "data": [{"binder": "B1", "values": [{"measurement": "IC50 for biological inhibition (pSTAT3, MSD assay, serum starved U-251 cells)", "result": 490, "unit": "picomolar"}]}]}
